Data as given in the RNAGym collection of RNA variant scans (doi:10.1073/pnas.2313332121).

B1: TPR t1 (parent)
chain: GACCAAUCUGCCCUCAGAGCUCGAGAACAUCUUCGGAUGCAGAGGAGGCAGGCUUCGGUGGCGCGAUAGCGCCAACGUCCUCAACCUCCAAUGCAUCCCACCACAUGAUGAUGCCUGAAGAGCCUUGGUUUUUUG

Variants of: B1
Test: polymerase ribozyme fitness, log enrichment relative to wild type (log ratio); higher = more active; in vitro selection for triplet polymerase activity
How it was run: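 Input and output libraries were sequenced on Illumina after a single in vitro selection round, run in triplicate on PCR-built, transcribed mutant libraries of each subunit of a heterodimeric triplet polymerase ribozyme. Selection annealed libraries to a biotinylated primer, the partner subunit and triplets, incubated them frozen at −7 °C, then gel-excised extended constructs for streptavidin-bead capture and RT-PCR. Genotypes with ≥10 input reads and ≥1 read per output were kept. Fitness is the logarithm, taken in base 2, of genotype enrichment divided by wild-type enrichment, using inverse-variance-weighted replicate averages.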

Row | Variant | polymerase ribozyme fitness (log ratio)
1 | C8G C11G U54C U55G C56U | -1.33
2 | C8G C20U U81G | -4.46
3 | C8G C22A C62U U106A | -3.64
4 | C8G G63U A75U A83G C85A G122A | -0.256
5 | C8G G17C A29U U87G G120A | -2.2
6 | C8G A68U G77C G120C | -7.19
7 | C8G U87A C101A A105C | -3.4
8 | C8G U14G G35C C64U C94U C124G | -3.33
9 | C8U A75U C89U A90U C99U G120A U130G U131A | -4.88
10 | C8G A46G C72U G110A | -0.393
11 | C8G C80U | 0.0565
12 | C8G A37U U38C G47A U131A | -1.99
13 | C8G G61A U78C U92A | -3.12
14 | C8G C124U | 0.949
15 | C8G G44U G61A U78A C82G C115A U130A | 0.635
16 | C8G U14G C53U G71U | 0.478
17 | C8G G47C G69U U92A G93U C123A U126A | -3.8
18 | C8G G19U G48A A50U U54G C72U U92A U112A | -4.04
19 | C8G U14A G107U | -4.05
20 | C8G G61U | 0.967
21 | C8G C123U | 1.6
22 | C8G G69A | -1.5
23 | C8G C31U G71U G120U | -3.77
24 | C8G C56A C94U | 0.74

Row | Variant | polymerase ribozyme fitness (log ratio)
25 | C8G G61A C94U C99G G117C | -7.13
26 | C8G A95G | 0.646
27 | C8G G19A A46C G71A | -3.53
28 | C8G U38A U54G C62A C98A C123U | -7.56
29 | C8G G93A | -0.604
30 | C8G A37C G48U C85A | 0.211
31 | C8G G47C C86G C124A | 1.6
32 | C8G G93A G113A | -0.312
33 | C8G U132A | 0.53
34 | C8G C53A G117A | 0.922
35 | C8G G60C A66C U131G | -3.98
36 | C8G G93A A111C | 0.513
37 | C8U A37G G52A C56U | -0.753
38 | C8G C12A G63C | 0.17
39 | C8G C72U A90C A91U A95G | -1.1
40 | C8G C11U U59A C62A G63U | -5.8
41 | C8G C72A C89A C94G | -1.88
42 | C8G C40A C98U G127C | -2.67
43 | C8U A27C C72U C80A | -6.42
44 | C8U A118G | -0.114
45 | C8G C11U A121C U130A | 1.01
46 | C8G C20U | -1.02
47 | C8G C20A | -1.49
48 | C8G U78C G93A C123A | 1.83

Row | Variant | polymerase ribozyme fitness (log ratio)
49 | C8G A46C C97G C101A C114A U130C | -6.93
50 | C8G G61A U109A U132C | -4.05
51 | C8G C22G U125G U131G | -6
52 | C8G G19A A119G | -1.07
53 | C8G C76U C82G G93A U116C | -2.26
54 | C8G C34A C40U U55A G69U C79U C98U G107U A111U G117C | -6.38
55 | C8G A83G U87C C101G | -1.58
56 | C8G C34G C89A U96G A100U | -7.34
57 | C8U A16C C64U U112C U132A | 1.19
58 | C8G C15U C62U C89G G93A C101U G113C C114U G127C | -4.12
59 | C8G C22U C40G G120A C124A | -2.61
60 | C8G C11A C72U C88U C97U G113U G127C | -4.01
61 | C8U A105C | -2.01
62 | C8U A46G C56G | -0.511
63 | C8G C85U C86G | -0.513
64 | C8G G47A | -0.0438
65 | C8G C28G C56A C88A | -3.47
66 | C8G C12U C15U G120U | 2.64
67 | C8G A50U G60U C123A G128U U130A | -0.561
68 | C8U A18U U116C | -2.04
69 | C8G A29U | -1.15
70 | C8G U30A | -5.66
71 | C8G U32A | -3.34
72 | C8G C89A | -1.01

Row | Variant | polymerase ribozyme fitness (log ratio)
73 | C8G C86G C89U G93A | -0.898
74 | C8G G45A G48A G57A G61U U92G U112G | -6.23
75 | C8G A29U C73A G120U | -0.106
76 | C8G G63C U92A | -3.28
77 | C8G G10A A18G G65C U116G G117A | -5.46
78 | C8G G69C U78G C101A | -3.19
79 | C8G A74C G120C | 1.98
80 | C8G C49A U96A | -0.377
81 | C8G C80G G113U | -5.81
82 | C8G C11G G36U | 0.581
83 | C8G C97U U109G C123U | -4.98
84 | C8G C11U U21C U132A | -0.171
85 | C8U A111G | 1.25
86 | C8G C20U G113C | -1.52
87 | C8U A29U G47C C72U C102A | -5.13
88 | C8G U21C C22G G117C C123U C124A | -4.09
89 | C8U A18C G48C A95G | -2.07
90 | C8G C73U A119U | 0.0435
91 | C8G C11A A50U U81C | -2.29
92 | C8G C62U U106A G113U | -1.94
93 | C8U A37U C86A | -0.897
94 | C8G C31G C82A C124U | -6.38
95 | C8G C53G A66U G120U | 1.03
96 | C8G G48A U96G U129A | -0.823

Row | Variant | polymerase ribozyme fitness (log ratio)
97 | C8G A46U | -0.191
98 | C8G U14A | 0.372
99 | C8G U14A A29G C40G G44U G57C | -2.63
100 | C8G G39A C73A C97A | -5.92
101 | C8G C72G | 0.418
102 | C8G C72U | 0.18
103 | C8U A37U C56U A83C C97U C124A | -1.47
104 | C8G C22G C76A G77A | -5.05
105 | C8G A66G C85A C114U | -3.3
106 | C8G G45U | -1.39
107 | C8G C22G C53U C70U A84C | -3.45
108 | C8U A46C G120C | 1.49
109 | C8G C99U | -2.82
110 | C8G G65U | -5.38
111 | C8G G45A A84G C89U G117A | -2.7
112 | C8G U109A | -4.06
113 | C8G G19C A75U C89G | -2.29
114 | C8G C13G G36A U78A A111C | 0.328
115 | C8G C94A C104U | 0.226
116 | C8G A27U G47C | -3.02
117 | C8G G39U | 0.57
118 | C8G G60U C85G A108U U131A | -5.69
119 | C8G C15G U21C G36A C82U U112A | -1.27
120 | C8G U54G C115A | 2.13

Row | Variant | polymerase ribozyme fitness (log ratio)
121 | C8G G42A G63A | -2.89
122 | C8G C34A U78C C97A G107A | -3.66
123 | C8G C22G G47A G77U | -4.32
124 | C8G C82A | 0.946
125 | C8U A27U C34U G48U G60A C98U U112C G117U | -7.25
126 | C8G U54G C89G | -1.05
127 | C8G C12G C114G | -2.57
128 | C8G C70A | -0.64
129 | C8G C49U G127A | -1.03
130 | C8G C12U C15U G25A A27U G42C G61A U78C U112A U125A U131A | -6.3
131 | C8G G42C C70G | -5.8
132 | C8G C62U | 0.179
133 | C8G C62A | -0.27
134 | C8G A37U A74C C88G G110A | -3.12
135 | C8U A50U G69U | -0.24
136 | C8G C40A C49G G52U G120C U132A | 0.561
137 | C8G G10U G69U U81C | -0.318
138 | C8G C34U C53G A90U G120A | -5.88
139 | C8G C15U G39A C62G | -2.54
140 | C8G A50U C53G C99U C104A C115A A121C | -7
141 | C8G C13G G17A G122A | -0.902
142 | C8G U21A C76G C99A U112A | -5.05
143 | C8G C12U G42C G93A | -2.42
144 | C8G G47A C64U C97A G120U | -4.09

Row | Variant | polymerase ribozyme fitness (log ratio)
145 | C8G A68G G71U A108G | -4.73
146 | C8G G10A C15G G77C G110A | -3.26
147 | C8G C70G A74U | -4.41
148 | C8G G69C U96A | -2.59
149 | C8G G128C | -0.73
150 | C8G U81C | 0.586
151 | C8G U81A | 0.387
152 | C8G C70A U92G | -5.61
153 | C8G G36U C70U | 0.358
154 | C8G G61A C72U G128C | -0.569
155 | C8G G36U A119G U133G | 0.386
156 | C8G C40A C72A C98U G127C | -1.39
157 | C8G U9A G17C A95G C115A | -0.322
158 | C8G C49G | 0.323
159 | C8U A41U C97U | -0.942
160 | C8G A27U G36A G42U C76A U96A U109A U116G | -6.96
161 | C8U A37U C70A U112C | 0.338
162 | C8G C15U G48C G71A C124G | 0.113
163 | C8G G128U U130C | 0.904
164 | C8G A29U U132C | -1.95
165 | C8G G69A C88A | -2.65
166 | C8U A100C | -0.899
167 | C8U A100U | -0.0529
